Measurements reported in doi:10.1101/2023.01.10.523494 (bioRxiv, 2023).

B1: mRBD25 (antibody, V domains shown)
VH: QVQLQQSGPELVKPGASVKISCKASGYAFSNSWMNWVKQRPGKGLEWIGRIYPGDGDTNYNGKFKGKATLTADKSSSTAYMQLSSLTSEDSAVYFCANYYGDYWGQGTTLTVSS
VL: QIVLTQSPALMSASPGEKVTMTCSASSSVSYMYWYQQKPRSSPKPWIYLTSNLASGVPARFSGSGSGTSYSLTISSMEAEDAATYYCQQWSSNPYTFGGGTKLEIK
B2: mRBD3 (antibody, V domains shown)
VH: QVQLQQPGAELVMPGTSVKLSCKASGYIFTSYWMHWVKQRPGQGLEWIGEIDPSDNYTNYNQKFKGKSTLTVDKSSSTAYMQLSSLTSEDSAVYYCARGGLYYYGSSYDAMDYWGQGTSVTVSS
VL: DIVMTQAAPSVPVTPGESVSISCRSSKSLLHSNGNTYLYWFLQRPGQSPQLLIYRMSNLASGVPDRFSGSGSGTAFTLRISRVEAEDVGAYYCMQHLEYPFTFGSGTKLEIK
B3: mRBD4 (antibody, V domains shown)
VH: QVQLQQPGAELVMPGASVKLSCKASGYTFTSYWMHWVKQRPGQGLEWIGEIDPSDSYTNYNQKFKDKSTLTVDKSSSTAYMQLSSLTSEDSAVYYCARGGVYYYGSSHYFDYWGQGTTLTVSS
VL: DIVMTQAAPSVPVTPGESVSISCRSSKSLLHSNGNTYLYWFLQRPGQSPQFLIYRMSNLASGVPDRFSGSGSGTAFTLRISRVEAEDVGVYYCMQHLEYPFTFGSGTKLEIK
B4: mRBD23 (antibody, V domains shown)
VH: QVQLQQPGAELVRPGSSVKLSCKASGYTFTSYWMHWVKQRPIQGLEWIGNIDPSDSETHYNQKFKDKATLTVDKSSSTAYMQLSSLTSEDSAVYYCTRPGSLRSRGWYFDVWGTGTTVTVSS
VL: DIVMTQAAPSVPVTPGESVSISCRSSKSLLHSNGNTYLYWFLQRPGQSPQLLIYRMSNLASGVPDRFSGSGSGTAFTLRISRVEAEDVGVYYCMQHLEYPYTFGGGTKLEIK
B5: mRBD14 (antibody, V domains shown)
VH: EVKLVESGGGLVQPGGSLSLSCAASGFTFTDYYMSWVRQPPGKALEWLGFIRNKANGYTTEYSASVKGRFTISRDNSQSILYLQMNALRAEDSATYYCARYIRTGWYFDVWGTGTTVTVSS
VL: DIVMTQSQKFMSTSVRDRVSITCKASQNVRTAVAWYQQKPGQSPKALIYLASNRHTGVPDRFTGSGSGTDFTLTISNVQSEDLADYFCLQHWNYPWTFGGGTKLEIK
B6: mRBD18 (antibody, V domains shown)
VH: QIQLVQSGPELKKPGETVKISCKASGYTFTDYPMHWVQQAPGKGFKWMGMIYTDTGEPTYAEEFKGRFAFSLETSASTAYLQINNLKNEDTATYFCVRWAGYFDYWGQGTTLTVSS
VL: DIVLTQSPASLAVSLGQRATISCRASESVDSYGNSFMDWYQQKPGQPPKLLIYRASNLESGIPARFSGSGSRTDFTLIINPVEADDVATYYCQQSNEHPLTFGAGTKLELK
B7: hRBD6 (antibody, V domains shown)
VH: QVQLQQWGAGLLKPSETLSLSCAVYGGAFSDYYWSWIRQPPGKGLEWIGEIDLSGSTNYNPSLKSRVTISVDTSKNQFSLKLISVTAADTAVYYCARTHLIGYCSGGSCYSGPDPSNWFDPWGQGTLVTVSS
VL: SSELTQDPAVSVALGQTVRITCQGDSLRSYYASWYQQKPGQAPVLVIYGKNNRPSGIPDRFSGSSSGNTASLTITGAQAEDEADYYCNSRDTSGHHPVFGGGTKLTVL
B8: hRBD1 (antibody, V domains shown)
VH: QVQLVQSGSELKKPGASVKVSCKASGNTLTNHALNWVRQAPGQGLEWMGWINTNTGIPTYAQGFTGRFVFSLDTSVSTAYLQISSLKAEDTAVYYCARVGQTAIAALDDAFDIWGQGTMVTVSS
VL: not shown
B9: hRBD2 (antibody, V domains shown)
VH: QVQLVQSGSELKKPGASVKVSCKASGYTFSNYAINWVRQAPGQGLEWMGWINTNTGHPTYAQGFTGRFVFSLDASVTTAYLQISSLKAEDTAVYYCARVGRTAIAALDDAFDIWGQGTMVTVSS
VL: not shown
B10: mRBD24 (antibody, V domains shown)
VH: EVQLQQSGPDLVKPGASVKISCKASGYTFTDYYMNWVKQSHGKSLEWIGDINPNNGGTYYNQKFKGKATLTVDKSSSTAYMELRSLTSEDSAVYYCARQLRRWGQGTLVTVSA
VL: not shown
B11: mRBD7 (antibody, V domains shown)
VH: QVQLKQSGAELVRPGASVKLSCKASGYTFTDYYINWVKQRPGQGLEWIARIYPGSGNTYYNEKFKGKATLTAEKSSSTAYMQLSSLTSEDSAVYFCARYPLYDYDEEDYFDYWGQGTTLTVSS
VL: DIQMTQTTSSLSASLGDRVTISCRASQDISNYLNWYQQKPDGTVKLLIYYTSRLHSGVPSRFSGSGSGTDYSLTISNLEQEDIATYFCQQGNTLPYTFGGGTKLEIK
B12: mRBD17 (antibody, V domains shown)
VH: QIQLVQSGPELKKPGETVKISCKASGYTLTEYPMHWVKQAPGKGFKWMGMIYTDTGEPTYAEEFKGRFAFSLETSASTAYLQINNLKNEDTATYFCVRAGPSFAMDYWGQGTSVTVSS
VL: DIQMTQTTSSLSASLGDRVTISCRASQDISNYLNWYQQKPDGTVKLLIYYTSRLHSGVPSRFSGSGSGTDYSLTISNLEQEDFATYFCQQGNTLPYTFGGGTKLEIK
B13: mRBD10 (antibody, V domains shown)
VH: QVQLKQSGAELVRPGASVKLSCKASGYTFTDYYINWVKQRPGQGLEWIARIYPGSGNTYYNEKFKGKATLTAEKSSSTAYMQLSSLTSEDSAVYFCARDYGSSYVDYFDYWGQGTTLTVSS
VL: DIQMTQTTSSLSASLGDRVTISCRASQDISNYLNWYQQKPDGTVKLLIYYTSRLHSGVPSRFSGSGSGTDYSLTISNLEQEDIATYFCQQGNTLPLTFGAGTKLELK
B14: mRBD12 (antibody, V domains shown)
VH: QVQLQQSGAELARPGASVKLSCKASGYTFTSYGISWVKQRTGQGLEWIGEIYPRSGNTYYNEKFKGKATLTADKSSSTAYMEVRSLTSEDSAVYFCAREGGYGYVMDYWGQGTSVTVSS
VL: DIQMTQTTSSLSASLGDRVTISCRASQDISNYLNWYQQKPDGTVKLLIYYTSRLHSGVPSRFSGSGSGTDYSFTISNLEQEDIATYFCQQGNTLPWTFGGGTKLEIK
B15: mRBD5 (antibody, V domains shown)
VH: QVQLQQPGAELVKPGASVKVSCKASGYTFTSYWMHWVKQRPGQGLEWIGRIHPSDSDTNYNQKFKGKATLTVDKSSSTAYMQLSSLTSEDSAVYYCAIDWDGDYWGQGTTLTVSS
VL: DIVMSQSPSSLAVSAGEKVTMSCKSSQSLLNSRTRKNYLAWYQQKPGQSPKLLIYWASTRESGVPDRFTGSGSGTDFTLTISSVQAEDLAVYYCKQSYNLWTFGGGTKLEIK
B16: mRBD6 (antibody, V domains shown)
VH: QVQLQQPGAELVKPGASVKVSCKASGYTFTSYWMHWVKQRPGQGLEWIGRIHPSDSDTNYNQKFKGKATLTVDKSSSTAYMQLSSLTSEDSAVYYCAMDWDVDYWGQGTTLTVSS
VL: DIVMSQSPSSLAVSAGEKVTMSCKSSQSLLNSRTRKNYLAWYQQKPGQSPKLLIYWASTRESGVPDRFTGSGSGTDFTLTISSVQAEDLAVYYCKQSYNLLTFGAGTKLELK
B17: mRBD11 (antibody, V domains shown)
VH: QVQLQQSGAELARPGASVKLSCKASGYTFISNGISWVKQRTGQGLEWIGEIYPRNGNTYYNEKFKGKATLTADKSSSTAYMELRSLTSEDSAVFFCARDYYYGNFDYWGQGTTLTVSS
VL: NIVLTQSPASLAVSLGQRATISCRASESVDSYGNSFMHWYQQKPGQPPKLLIYLASNLESGVPARFSGSGSRTDFTLTIDPVEADDAATYYCQQNNEDPYTFGGGTKLEIK
B18: mRBD21 (antibody, V domains shown)
VH: QIQLVQSGPELKKPGETVKISCKASGYTFTKYPMHWVKQAPGKGFKWMGMIYTDTGEPTYAEEFKGRCAFSLETSASTAYLQINNLKNEDTATYFCVRWGGSYALDYWGQGTSVTVSS
VL: DIVLTQSPASLAVSLGQRATISCRASESVDSYGNSFMHWYQQKPGQPPKLLIYRASNLESGIPARFSGSGSRTDFTLTINPVEADDVATYYCQQSNEDPLTFGAGTKLELK
B19: mRBD22 (antibody, V domains shown)
VH: QIQLVQSGPELKKPGETVKISCKASGYTFTEYPMHWVKQAPGKGFKWMGMIYTDTGEPTYAEEFKGRFAFSLETSASTAYLQINNLKNEDTATYFCVRGGYYYFDYWGQGTTLTVSS
VL: NIVLTQSPASLAVSLGQRATISCRASESVDSYGNSFMHWYQQKPGQPPKLLIYLASNLESGVPARFSGSGSRTDFTLTIDPVEADDAATYYCQQNNEDPWTFGGGTKLEIK
B20: mRBD15 (antibody, V domains shown)
VH: QIQLVQSGPDLKKPGETVKISCKASGYTFTEYPMHWVKQAPGKGFQWMGMIYTDTGEPTYAEEFKGRFAFSLETSASTAYLQINNLKNEDTSTYFCVRAGPSYAMDYWGQGTSVTVSS
VL: NIVLTQSPASLAVSLGQRATISCRASESVDSYGNSFMHWYQQKPGQPPKLLIYLASNVESGVPARFSGSGSRTDFTLTIDPVEADDAATYYCHQINEDPYTFGGGTKLEIK
B21: mRBD16 (antibody, V domains shown)
VH: QIQLVQSGPELKKPGETVKISCKASGYTLTEYPMHWVKQAPGKGFKWMGMIYTDTGEPTYAEEFKGRFAFSLETSASTAYLQINNLKNEDTATYFCVRAGPSFAMDYWGQGTSVTVSS
VL: NIVLTQSPASLAVSLGQRATISCRASESVDSYGNSFMHWYQQKPGQPPKLLIYLASNLESGVPARFSGSGSRTDFTLTIDPVEADDAATYYCQQNNEDPYTFGGGTKLEIK
B22: mRBD19 (antibody, V domains shown)
VH: QIQLVQSGPELKKPGETVKISCKASGYTFTEYPMHWVKQAPGKGFKWMGMIYTDTGEPTYAEEFKGRFAFSLETSASTAYLQINNLKNEDTATYFCVRGGPYYAMDYWGQGTSVTVSS
VL: NIVLTQSPASLAVSLGQRATISCRASESVDSYGNSFMHWYQQKPGQPPKLLIYLASNLESGVPARFSGSGSRTDFTLTIDPVEADDAATYYCQQNNEDPWTFGGGTKLEIK
B23: mRBD20 (antibody, V domains shown)
VH: QIQLVQSGPELKKPGETVKISCKASGYTLTEYPMHWVKQAPGKGFKWMGMIYTDTGEPTYAEEFKGRFAFSLETSASTAYLQINNLKNEDTATYFCVRAGPSYAMDYWGQGTSVTVSS
VL: NIVLTQSPASLAMSLGQRATISCRASESVDSYGNSFMHWYQLKPGQPPKLLIYLASNLESGVPARFSGSGSRTDFTLTIDPVEADDAATYYCQQNNEDPYTFGGGTKLEIK

The binders below were run against receptor binding domain (RBD) of the wildtype (WT) SARS-CoV-2 spike protein (SARS-CoV-2, wildtype (sequence as in …)).

**Q.** Does B1 bind?
**A.** binds

**Q.** Does B2 bind?
**A.** binds

**Q.** Does B3 bind?
**A.** binds

**Q.** Does B4 bind?
**A.** binds

**Q.** Does B5 bind?
**A.** binds

**Q.** Does B6 bind?
**A.** binds

**Q.** Does B7 bind?
**A.** binds

**Q.** Does B8 bind?
**A.** binds

**Q.** Does B9 bind?
**A.** binds

**Q.** Does B10 bind?
**A.** binds

**Q.** Does B11 bind?
**A.** binds

**Q.** Does B12 bind?
**A.** binds

**Q.** Does B13 bind?
**A.** binds

**Q.** Does B14 bind?
**A.** binds

**Q.** Does B15 bind?
**A.** binds

**Q.** Does B16 bind?
**A.** binds

**Q.** Does B17 bind?
**A.** binds

**Q.** Does B18 bind?
**A.** binds

**Q.** Does B19 bind?
**A.** binds

**Q.** Does B20 bind?
**A.** binds

**Q.** Does B21 bind?
**A.** binds

**Q.** Does B22 bind?
**A.** binds

**Q.** Does B23 bind?
**A.** binds
